# B1: Cx35 mutant Y78V (Morone americana) (other)
# chain: MGEWTILERLLEAAVQQHSTMIGRILLTVVVIFRILIVAIVGETVYDDEQTMFVCNTLQPGCNQACYDKAFPISHIRVWVFQIIMVCTPSLCFITYSVHQSAKQKERRYSTVYLTLDKDQDSLKRDESKKIKNTIVNGVLQNTENSTKEAEPDCLEVKEIPNSAMRTTKSKMRRQEGISRFYIIQVVFRNALEIGFLVGQYFLYGFNVPSVYECDRYPCIKDVECYVSRPTEKTVFLVFMFAVSGFCVVLNLAELNHLGWRKIKTAVRGVQARRKSIYEIRNKDLPRMSVPNFGRTQSSDSAYV
# notes: Extracellular loop mutant of the screening library; also called Cx35 Y78V; not shown: C-terminal fluorescent protein fusion (mEmerald or RFP670 in FETCH)
# B2: Cx35 mutant Y78S (Morone americana) (other)
# chain: MGEWTILERLLEAAVQQHSTMIGRILLTVVVIFRILIVAIVGETVYDDEQTMFVCNTLQPGCNQACYDKAFPISHIRSWVFQIIMVCTPSLCFITYSVHQSAKQKERRYSTVYLTLDKDQDSLKRDESKKIKNTIVNGVLQNTENSTKEAEPDCLEVKEIPNSAMRTTKSKMRRQEGISRFYIIQVVFRNALEIGFLVGQYFLYGFNVPSVYECDRYPCIKDVECYVSRPTEKTVFLVFMFAVSGFCVVLNLAELNHLGWRKIKTAVRGVQARRKSIYEIRNKDLPRMSVPNFGRTQSSDSAYV
# notes: Extracellular loop mutant of the screening library; also called Cx35 Y78S; not shown: C-terminal fluorescent protein fusion (mEmerald or RFP670 in FETCH)
# B3: Cx35 mutant Y78T (Morone americana) (other)
# chain: MGEWTILERLLEAAVQQHSTMIGRILLTVVVIFRILIVAIVGETVYDDEQTMFVCNTLQPGCNQACYDKAFPISHIRTWVFQIIMVCTPSLCFITYSVHQSAKQKERRYSTVYLTLDKDQDSLKRDESKKIKNTIVNGVLQNTENSTKEAEPDCLEVKEIPNSAMRTTKSKMRRQEGISRFYIIQVVFRNALEIGFLVGQYFLYGFNVPSVYECDRYPCIKDVECYVSRPTEKTVFLVFMFAVSGFCVVLNLAELNHLGWRKIKTAVRGVQARRKSIYEIRNKDLPRMSVPNFGRTQSSDSAYV
# notes: Extracellular loop mutant of the screening library; also called Cx35 Y78T; not shown: C-terminal fluorescent protein fusion (mEmerald or RFP670 in FETCH)
# B4: Cx35 mutant L237Y (Morone americana) (other)
# chain: MGEWTILERLLEAAVQQHSTMIGRILLTVVVIFRILIVAIVGETVYDDEQTMFVCNTLQPGCNQACYDKAFPISHIRYWVFQIIMVCTPSLCFITYSVHQSAKQKERRYSTVYLTLDKDQDSLKRDESKKIKNTIVNGVLQNTENSTKEAEPDCLEVKEIPNSAMRTTKSKMRRQEGISRFYIIQVVFRNALEIGFLVGQYFLYGFNVPSVYECDRYPCIKDVECYVSRPTEKTVFYVFMFAVSGFCVVLNLAELNHLGWRKIKTAVRGVQARRKSIYEIRNKDLPRMSVPNFGRTQSSDSAYV
# notes: Extracellular loop mutant of the screening library; also called Cx35 L237Y; not shown: C-terminal fluorescent protein fusion (mEmerald or RFP670 in FETCH)
# B5: Cx34.7 mutant Y78S (Morone americana) (other)
# chain: MGEWTILERLLEAAVQQHSTMIGRILLTVVVIFRILIVAIVGETVYEDEQAMFICNTLQPGCNQACYDKAFPISHIRSWVFQIILVCTPSLCFITYSVHQSAKQKDRRYSFLYPIMERDYGGRDGARKLRNINGILVQHGGDGGGGKEEPDCLEVKEIPNAPRGLTHGKSSKVRRQEGISRFYIIQVVFRNALEIGFLAGQYFLYGFSVPGIFECDRYPCLKEVECYVSRPTEKTVFLVFMFAVSGICVVLNLAELNHLGWRKIKAAIRGVQARRKSICEIRKKDMAHLSQPPNLGRTQSSESAYV
# notes: Extracellular loop mutant of the screening library; also called Cx34.7 Y78S; not shown: C-terminal fluorescent protein fusion (mEmerald or RFP670 in FETCH)
# B6: Cx34.7 mutant Y78T (Morone americana) (other)
# chain: MGEWTILERLLEAAVQQHSTMIGRILLTVVVIFRILIVAIVGETVYEDEQAMFICNTLQPGCNQACYDKAFPISHIRTWVFQIILVCTPSLCFITYSVHQSAKQKDRRYSFLYPIMERDYGGRDGARKLRNINGILVQHGGDGGGGKEEPDCLEVKEIPNAPRGLTHGKSSKVRRQEGISRFYIIQVVFRNALEIGFLAGQYFLYGFSVPGIFECDRYPCLKEVECYVSRPTEKTVFLVFMFAVSGICVVLNLAELNHLGWRKIKAAIRGVQARRKSICEIRKKDMAHLSQPPNLGRTQSSESAYV
# notes: Extracellular loop mutant of the screening library; also called Cx34.7 Y78T; not shown: C-terminal fluorescent protein fusion (mEmerald or RFP670 in FETCH)
# B7: Cx34.7 mutant Y78V (Morone americana) (other)
# chain: MGEWTILERLLEAAVQQHSTMIGRILLTVVVIFRILIVAIVGETVYEDEQAMFICNTLQPGCNQACYDKAFPISHIRVWVFQIILVCTPSLCFITYSVHQSAKQKDRRYSFLYPIMERDYGGRDGARKLRNINGILVQHGGDGGGGKEEPDCLEVKEIPNAPRGLTHGKSSKVRRQEGISRFYIIQVVFRNALEIGFLAGQYFLYGFSVPGIFECDRYPCLKEVECYVSRPTEKTVFLVFMFAVSGICVVLNLAELNHLGWRKIKAAIRGVQARRKSICEIRKKDMAHLSQPPNLGRTQSSESAYV
# notes: Extracellular loop mutant of the screening library; also called Cx34.7 Y78V; not shown: C-terminal fluorescent protein fusion (mEmerald or RFP670 in FETCH)
# B8: Cx34.7 mutant E225K (Morone americana) (other)
# chain: MGEWTILERLLEAAVQQHSTMIGRILLTVVVIFRILIVAIVGETVYEDEQAMFICNTLQPGCNQACYDKAFPISHIRYWVFQIILVCTPSLCFITYSVHQSAKQKDRRYSFLYPIMERDYGGRDGARKLRNINGILVQHGGDGGGGKEEPDCLEVKEIPNAPRGLTHGKSSKVRRQEGISRFYIIQVVFRNALEIGFLAGQYFLYGFSVPGIFECDRYPCLKEVKCYVSRPTEKTVFLVFMFAVSGICVVLNLAELNHLGWRKIKAAIRGVQARRKSICEIRKKDMAHLSQPPNLGRTQSSESAYV
# notes: Extracellular loop mutant of the screening library; also called Cx34.7 E225K; not shown: C-terminal fluorescent protein fusion (mEmerald or RFP670 in FETCH)
# B9: Cx34.7 mutant E225R (Morone americana) (other)
# chain: MGEWTILERLLEAAVQQHSTMIGRILLTVVVIFRILIVAIVGETVYEDEQAMFICNTLQPGCNQACYDKAFPISHIRYWVFQIILVCTPSLCFITYSVHQSAKQKDRRYSFLYPIMERDYGGRDGARKLRNINGILVQHGGDGGGGKEEPDCLEVKEIPNAPRGLTHGKSSKVRRQEGISRFYIIQVVFRNALEIGFLAGQYFLYGFSVPGIFECDRYPCLKEVRCYVSRPTEKTVFLVFMFAVSGICVVLNLAELNHLGWRKIKAAIRGVQARRKSICEIRKKDMAHLSQPPNLGRTQSSESAYV
# notes: Extracellular loop mutant of the screening library; also called Cx34.7 E225R; not shown: C-terminal fluorescent protein fusion (mEmerald or RFP670 in FETCH)
# B10: Cx34.7 mutant L238Y (Morone americana) (other)
# chain: MGEWTILERLLEAAVQQHSTMIGRILLTVVVIFRILIVAIVGETVYEDEQAMFICNTLQPGCNQACYDKAFPISHIRYWVFQIILVCTPSLCFITYSVHQSAKQKDRRYSFLYPIMERDYGGRDGARKLRNINGILVQHGGDGGGGKEEPDCLEVKEIPNAPRGLTHGKSSKVRRQEGISRFYIIQVVFRNALEIGFLAGQYFLYGFSVPGIFECDRYPCLKEVECYVSRPTEKTVFYVFMFAVSGICVVLNLAELNHLGWRKIKAAIRGVQARRKSICEIRKKDMAHLSQPPNLGRTQSSESAYV
# notes: Extracellular loop mutant of the screening library; also called Cx34.7 L238Y; not shown: C-terminal fluorescent protein fusion (mEmerald or RFP670 in FETCH)
# B11: Cx35 mutant N56E (Morone americana) (other)
# chain: MGEWTILERLLEAAVQQHSTMIGRILLTVVVIFRILIVAIVGETVYDDEQTMFVCETLQPGCNQACYDKAFPISHIRYWVFQIIMVCTPSLCFITYSVHQSAKQKERRYSTVYLTLDKDQDSLKRDESKKIKNTIVNGVLQNTENSTKEAEPDCLEVKEIPNSAMRTTKSKMRRQEGISRFYIIQVVFRNALEIGFLVGQYFLYGFNVPSVYECDRYPCIKDVECYVSRPTEKTVFLVFMFAVSGFCVVLNLAELNHLGWRKIKTAVRGVQARRKSIYEIRNKDLPRMSVPNFGRTQSSDSAYV
# notes: Extracellular loop mutant of the screening library; also called Cx35 N56E; not shown: C-terminal fluorescent protein fusion (mEmerald or RFP670 in FETCH)
# Target: the molecule itself
# Experiment: homotypic FETCH screen
# Procedure: Complete FETCH methodology is outlined in Ransey et. al. 2021 (Ransey E, et al. (2021) BioRxiv). Briefly, replica multi-well plates with HEK 293FT cells were transfected with either of the two connexin proteins being evaluated for docking. Following a transfection incubation period, experimental counterparts were combined, replated, and further incubated for about 20 hr to about 24 hrs, allowing cells to make contacts and potentially generate connexosomes. Co-plated samples were trypsinized, fixed in suspension and analyzed via flow cytometry. Flow cytometry data was processed with two selection gates prior to their fluorescence evaluation. First, putative HEK cells were identified by evaluating sample forward vs. side scatter area. Next, single cells were identified as the putative cells that maintained a linear correlation of forward scatter height to forward scatter area. Finally, the dual fluorescence (mEmerald vs. RFP670) profiles of each sample was generated, and the FETCH score was defined as the proportion of dual-labeled fluorescent cells that develop in a co-plated sample.
# For screening analysis, five FETCH replicates were obtained for each condition (mutation). These scores were benchmarked against scores for Cx36 and Cx45 (FETCH=1.2±0.1%, n=54 replicates). To quantitatively determine whether a connexin pair docked, FETCH scores were determined for the dual fluorescence of cells under conditions where docking was not anticipated. These conditions included pairs of connexins previously established to not show docking: (i) Cx36 and Cx45 (FETCH=0.7±0.0%, n=59 replicates), (ii) homotypic Cx23 (FETCH=0.9±0.4%, n=6 previously collected replicates (Ransey E, et al. (2021) BioRxiv), and (iii) Cx36 and Cx43 (FETCH=1.2±0.2%, n=10 previously collected replicates (Ransey E, et al. (2021) BioRxiv), and under conditions for which cells were transfected with cytoplasmic fluorophores rather than tagged connexins (FETCH=4.4±0.6%, n=17 previously collected replicates (Ransey E, et al. (2021) BioRxiv).
row,Protein,binding result
1,B1,no binding
2,B2,no binding
3,B3,no binding
4,B4,no binding
5,B5,no binding
6,B6,no binding
7,B7,no binding
8,B8,no binding
9,B9,no binding
10,B10,no binding
11,B11,no binding
